Experimental data from article PMC9371709 (Proceedings of the National Academy of Sciences of the …, 2022).
Where “and” joins values, the source holds several entries; their conditions need not be identical. Identical values can stand only once.

Legend:
[1] = target: the molecule itself; experiment: cryo-EM structure
[2] = target: the molecule itself; experiment: SEC-MALS

B1: human Twinkle helicase W315L (C-terminal his-tag Δ42, FL residues 43–684) (enzyme, UniProt Q96RR1 43-684, looked up)
chain: ETLQALDMPVLPVTATEIRQYLRGHGIPFQDGHSCLRALSPFAESSQLKGQTGVTTSFSLFIDKTTGHFLCMTSLAEGSWEDFQASVEGRGDGAREGFLLSKAPEFEDSEEVRRIWNRAIPLWELPDQEEVQLADTMFGLTKVTDDTLKRFSVRYLRPARSLVFPWFSPGGSGLRGLKLLEAKCQGDGVSYEETTIPRPSAYHNLFGLPLISRRDAEVVLTSRELDSLALNQSTGLPTLTLPRGTTCLPPALLPYLEQFRRIVFWLGDDLRSLEAAKLFARKLNPKRCFLVRPGDQQPRPLEALNGGFNLSRILRTALPAWHKSIVSFRQLREEVLGELSNVEQAAGLRWSRFPDLNRILKGHRKGELTVFTGPTGSGKTTFISEYALDLCSQGVNTLWGSFEISNVRLARVMLTQFAEGRLEDQLDKYDHWADRFEDLPLYFMTFHGQQSIRTVIDTMQHAVYVYDICHVIIDNLQFMMGHEQLSTDRIAAQDYIIGVFRKFATDNNCHVTLVIHPRKEDDDKELQTASIFGSAKASQEADNVLILQDRKLVTGPGKRYLQVSKNRFDGDVGVFPLEFNKNSLTFSIPPKNKARLKKIKDDTGPVAKKPSSGKKGATTQNSEICSGQAPTPDQPDTSKRSK
B1 was tested, and the “stoichiometry N” value [1] was 7 and 8 and the “stoichiometry N” value [2] was ~8.
